# According to article PMC9286290, “Active PD-L1 incorporation within HIV virions functionally impairs T follicular helper cells” (PLoS Pathogens, 2022):
# B1: p17 HIV matrix protein (natural protein)
# chain: GARASVLSGGELDRWEKIRLRPGGKKKYKLKHIVWASRELERFAVNPGLLETSEGCRQILGQLQPSLQTGSEELRSLYNTVATLYCVHQRIEIKDTKEALDKIEEEQNKSKKKAQQAAADTGHSNQVSQNY
# Target: T1, recombinant full-length PD-L1 protein (Phe19-Thr290) (UniProt Q9NZQ7 19-290)
# T1 construct: Programmed Death-Ligand 1 (PD-L1), residues Phe19-Thr290; also called flPD-L1; source: bought: Amsbio (TP710226)
# T1 sequence (Q9NZQ7 19-290): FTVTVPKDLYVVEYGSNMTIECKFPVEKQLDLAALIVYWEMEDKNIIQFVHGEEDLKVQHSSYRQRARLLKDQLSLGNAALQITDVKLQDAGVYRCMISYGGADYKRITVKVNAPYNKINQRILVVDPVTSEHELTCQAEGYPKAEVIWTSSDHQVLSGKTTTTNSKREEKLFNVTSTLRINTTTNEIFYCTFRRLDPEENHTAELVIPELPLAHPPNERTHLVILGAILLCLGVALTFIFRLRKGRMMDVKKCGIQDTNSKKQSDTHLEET
# Test: BLI; FortéBio Octet K2; p17 or p24 immobilised on aminopropylsilane biosensors, saturated with BSA; association and dissociation 8 min each; PBS with 0.01% BSA and 0.002% Tween-20, 1,000 rpm; for kinetics flPD-L1 from 0 to 450 nM, BSA as reference, 1:1 model
# Settings: both partners purified
binder,measurement,value
B1,Kd,0.3 nM
